Results on 1 substance are retold here after publication PMC9288967.

Test [1] deals with spike RBD of the Alpha variant (B.1.1.7) (SARS-CoV-2) (UniProt P0DTC2). Briefly: cross-linking.
The target in test [2] is spike RBD of the Delta variant (B.1.617.2) (SARS-CoV-2) (UniProt P0DTC2). In words: cross-linking.

mNb6(108FFY) (VHH): the kobs (apparent first-order constant of cross-linking) in test [1] turned out to be 0.086 h⁻¹; in test [2], 0.156 h⁻¹.
